We go through one molecule from US12416034B2, “Recombinant production of steviol glycosides” (EVOLVA SA, priority 2011, dated 2025).

Data set [1] in a line: Stability of EUGT11: pre-incubation before RebA to RebD reaction. It counts as physicochemical. On the procedure:
Reactions were conducted to explore the stability of EUGT11 under various RebA to RebD reaction conditions. Omitting the substrate from the reaction mixture, EUGT11 was pre-incubated for various periods of time before substrate was added. Following a pre-incubation of the enzyme in 100 mM Tris-HCl buffer, substrate (100 μM RebA) and other reaction components (300 μM UDP-glucose, and 10 U/mL Alkaline Phosphatase (Fermentas/Thermo Fisher, Waltham, MA)) were added (0, 1, 4 or 24 hours after the incubation was started). The reaction was then allowed to proceed for 20 h, after which the reactions were stopped and RebD product-formation measured. Experiments were repeated at different temperatures: 30° C., 32.7° C., 35.8° C. and 37° C.

A short description of data set [2]: Enzyme kinetics with UDP-glucose as substrate. It counts as biochemical. On the procedure:
(§1) A series of experiments were performed to determine kinetic parameters of EUGT11 and 91D2e-b. For both enzymes, 100 μM RebA, 300 μM UDP-glucose, and 10 U/mL Alkaline Phosphatase (Fermentas/Thermo Fisher, Waltham, MA) were used in the reactions. For EUGT11, the reactions were performed at 37° C. using 100 mM Tris-HCl, pH 7, and 2% enzyme. For 91D2e-b, the reactions were performed at 30° C. using 20 mM Hepes-NaOH, pH 7.6, 20% (by volume) enzyme. The initial velocities (V0) were calculated in the linear range of a product versus time plot.
(§2) Vmax and KM parameters were determined from the curve-fit Lineweaver-Burk data, calculated from the x- and y intercepts (x=0, y=1/Vmax) and (y=0, x=−1/KM). Additionally, the same parameters also were calculated by a non-linear least squares regression, using the SOLVER function in Excel. The results obtained with both methods for EUGT11 and RebA are presented in Table 12, along with all the kinetic parameters of this example. Kcat is calculated based on Vmax divided by the approximate amount of protein in the assay.
In order to investigate the influence of UDP-glucose concentration in the glycosylation reaction, as well as the affinity of EUGT11 for UDP-glucose, similar kinetics analysis were performed. EUGT11 was incubated with increasing amounts of UDP-glucose (20 μM, 50 μM, 100 μM, and 200 μM), maintaining an excess of RebA (500 μM).
(§3) In the case of UGT91D2e-b, RebA concentrations assayed were 50 μM, 100 μM, 200 μM, 300 μM, 400 μM and 500 μM. Concentration of UDP-glucose was always three times the concentration of RebA and incubation was performed at 30° C., in the reaction conditions described above for UGT91D2e-b. Additionally, kinetic parameters of UGT91D2e-b towards UDP-glucose were determined. UGT91D2e-b was incubated with increasing amounts of UDP-glucose (30 μM, 50 μM, 100 μM, and 200 μM), maintaining an excess of RebA (1500 μM). incubation was performed at 30° C., in optimal conditions for UGT91D2e-b.

A short description of data set [3]: Limiting factor in RebA to RebD reaction. It counts as biochemical. As to the method:
Under the conditions described above for EUGT11, approximately 25% of the RebA administered was converted to RebD. The limiting factor in these conditions could be either the enzyme, UDP-glucose or RebA. Experiments were set up to distinguish between these possibilities. A standard assay was allowed to run its course during 4 hours. This was followed by addition of either extra RebA substrate, extra enzyme, extra UDP-glucose or extra enzyme and UDP-glucose.
Experiments were conducted to examine the limit to this benefit of adding bolus amounts of UDP-glucose and fresh enzyme in the conversion of RebA to RebD reaction. Additional enzyme or enzyme and UDP-glucose were added after 1, 6, 24 and 28 hours. In the case of the addition of both extra EUGT11 and UDP-glucose, a conversion of more than 70% was achieved. […] Alternatively, as explained below, EUGT11 may be metabolizing the UDP-glucose.

The nature of data set [4]: In vitro transcribed and translated UGTs incubated with steviol, LC-MS. It counts as biochemical. On the procedure:
(§4) EUGT11 was produced by in vitro transcription and translation, and incubated with various substrates in the RebD pathway. Similar experiments were carried out using in vitro transcribed and translated UGT91D2e. […] Compounds 1-3 were identified solely by mass and expected retention time. The numbers shown in FIG. 3 are the average peak height of the indicated steviol glycoside obtained from a LC-MS chromatogram, and, although not quantitative, can be used to compare the activity of the two enzymes. […] Both enzymes were able to convert steviol 19-O-monoglucoside (SMG) to compound 1, with EUGT11 being about ten times more efficient than UGT91D2e at converting 19-SMG to compound 1.

A short description of data set [5]: In vitro transcribed and translated UGTs incubated with 19-SMG, LC-MS. Format: biochemical. The conditions noted are these: average LC-MS peak height, not quantitative. On the procedure:
as §4

A short description of data set [6]: Enzyme kinetics with RebA as substrate. Format: biochemical. The conditions noted are these: Reb A. On the procedure: as §1
To first investigate the linearity intervals, initial time-courses were done for each enzyme. EUGT11 was assayed at 37° C. for 48 h at initial concentrations of 100 μM RebA and 300 μM UDP-glucose. UGT91D2e-b was assayed at 37° C. for 24 h at initial concentrations of 200 μM RebA and 600 μM UDP-glucose. Based on these range-finding studies, it was determined that the initial 10 minutes in the case of EUGT11, and the initial 20 minutes in UGT91D2e-b would be in the linear range with respect to product formation, and therefore initial velocities of each reaction were calculated in those intervals. In the case of EUGT11, RebA concentrations assayed were 30 μM, 50 μM, 100 μM, 200 μM, 300 μM and 500 μM. Concentration of UDP-glucose was always three times the concentration of RebA and incubation was performed at 37° C. By plotting the calculated V0 as a function of the substrate concentrations, Michaelis-Menten curves were generated. By plotting the reciprocal of V0 and the reciprocal of [S], a Lineweaver-Burk graphic was obtained, with y=339.85x+1.8644; R^2=0.9759.
as §2, §3

The nature of data set [7]: In vitro transcribed and translated UGTs incubated with rubusoside, LC-MS. It counts as biochemical. On the procedure:
as §4
The left panel of FIG. 5 contains LC-MS chromatograms of the conversion of rubusoside to stevioside. The right panel of FIG. 5 contains chromatograms of the conversion of rubusoside to stevioside, to compound 2, and to compound 3 (RebE). Conversion of rubusoside to compound 3 requires two consecutive 1, 2-O-glycosylations at the 19- and 13-positions of steviol.

B1: EUGT11: UDP glycosyl transferase from Oryza sativa (GenBank AC133334), SEQ ID NO:152 (protein, listed as Oryza sativa)
chain: MDSGYSSSYAAAAGMHVVICPWLAFGHLLPCLDLAQRLASRGHRVSFVSTPRNISRLPPVRPALAPLVAFVALPLPRVEGLPDGAESTNDVPHDRPDMVELHRRAFDGLAAPFSEFLGTACADWVIVDVFHHWAAAAALEHKVPCAMMLLGSAHMIASIADRRLERAETESPAAAGQGRPAAAPTFEVARMKLIRTKGSSGMSLAERFSLTLSRSSLVVGRSCVEFEPETVPLLSTLRGKPITFLGLMPPLHEGRREDGEDATVRWLDAQPAKSVVYVALGSEVPLGVEKVHELALGLELAGTRFLWALRKPTGVSDADLLPAGFEERTRGRGVVATRWVPQMSILAHAAVGAFLTHCGWNSTIEGLMFGHPLIMLPIFGDQGPNARLIEAKNAGLQVARNDGDGSFDREGVAAAIRAVAVEEESSKVFQAKAKKLQEIVADMACHERYIDGFIQQLRSYKD
As for B1, the activity after pre-incubation entry in data set [1] (30° C., 4 hours) is on record as “not significantly reduced”. Further, the “activity remaining after pre-incubation” value in data set [1] (30° C., 24 hours) is recorded as “approximately one-third”; in data set [1] (37° C., 1 hour) it was “approximately half”; in data set [1] (37° C., 4 hours) it was “almost no activity”. Moreover, the Kcat in data set [2] (Lineweaver-Burk plot) turned out to be 0.202 s⁻¹; in data set [2] (Nonlinear Least Square Fit), 0.2053 s⁻¹; in data set [6] (Lineweaver-Burk plot), 0.14 s⁻¹; in data set [6] (Nonlinear Least Square Fit), 0.135 s⁻¹. Besides, the Km in data set [2] (Lineweaver-Burk plot) is 118 µM; in data set [2] (Nonlinear Least Square Fit), 130 µM; in data set [6] (Lineweaver-Burk plot), 182 µM; in data set [6] (Nonlinear Least Square Fit) it was 162 µM. Besides, the Vmax in data set [2] (Lineweaver-Burk plot) stood at 0.78 µM/min; in data set [2] (Nonlinear Least Square Fit) it was 0.79 µM/min; in data set [6] (Lineweaver-Burk plot) it was 0.54 µM/min; in data set [6] (Nonlinear Least Square Fit) it was 0.52 µM/min. Besides, in data set [3] (extra EUGT11 and UDP-glucose added after 1, 6, 24 and 28 hours), the “conversion of RebA to RebD” value is “more than 70%”. For the same molecule, in data set [3] (standard conditions for EUGT11), the “RebA converted to RebD” value is recorded as “approximately 25%”. In addition, the “use of steviol as a substrate” value in data set [4] is “not able to use steviol as a substrate”. In addition, in data set [5], the “efficiency at converting 19-SMG to compound 1 compared with UGT91D2e” value is recorded as “about ten”. The “amount of compound 3 (RebE) produced from rubusoside” value in data set [7] is reported as “significant amount”.
